Reference: article doi:10.1101/2021.04.18.440338

Key:
[1] = biological target: Rabbit skeletal muscle actin (RMA), as filaments (rabbit) (UniProt P68135); assay: single-molecule microfluidics-assisted TIRF microscopy
[2] = biological target: GST-549-SNAP-N-IQGAP1 (GST-SNAP-N-IQGAP1-6His, 1-522) (UniProt P46940); assay: single-molecule step photobleaching
[3] = biological target: Rabbit skeletal muscle actin (RMA), as filaments (rabbit) (UniProt P68135)

| Substance | average dwell time on filament sides [1] | koff [1] | stoichiometry N [2] | barbed end depolymerization rate in mf-TIRF: IC50 of N-IQGAP1 [3] |
| --- | --- | --- | --- | --- |
| GST-549-SNAP-N-IQGAP1 (GST-SNAP-N-IQGAP1-6His, 1-522) (from UniProt P46940 1-522) (domain or fragment) | 6.8 min | 0.0025 s⁻¹ | 2 |  |
| 6His-N-IQGAP1 (1-522) (from UniProt P46940 1-522) (domain or fragment) |  |  |  | 0.3 nM |
